According to the domain aggregation screens of Martell et al. (2025):

Experiment: soluble fraction after stress (log2 fold change); higher = more stays soluble; pooled small domains, quantitative proteomics
Settings: stress: pH 4
How it was run: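 Custom libraries of small protein domains were pooled and measured with high-throughput quantitative proteomics after pH 4 stress. The read-out is the fold change in the amount of each domain that stays soluble after the acid stress, taken as a measure of aggregation propensity. Fold changes are on a log2 scale, and higher values mean more of the domain stayed soluble.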

Sequence	soluble fraction (log2)
HMPRRSYLDARKKLLGMLNSPDFNSGDQIPAERELSEVLGISRVTVRKIITELIDEGVLERRGNQGTWLVD	-0.48
HMVSGSPTVDILMQRGLEYQQQENLEAARDAFDRAINLKPDYAEAWNRRAVLFFNEGKYDEAIADLETAIT	-0.0941
HMEWLENIKKLKKEKGLTNESLSEKSGISVGTLNKLLSGATTDPKLSTLRPLADALEVSLDELLAI	-0.187
HMKGTVKFFNESKGFGFITEEGTNKEHFVHVSGLVDEIRENDEVEFDLQDGRKGLNAVNVRV	0.0618
HMKNIINFIVKEDDNNKRVDMILANHDKSLSRTRVKNLILDSKLKINERIVQDPSIKTKLNDKIELEIVEP	0.251
HMSESEDFQNRWRPWRSLLDDETPVVREALVDQLKLFPEEGRLFLQQMSEEDDPISARHAFELIKSLGW	-1.11
HMHSLGDQVFETIKELIVNNTYQPGELLQIDKLAAEFGVSTTPVREALLRLEGLGLVDIERNKAAVVT	-0.352
HMQEEELYPRLEEVINQHRGKGEDLIMVLHKAQNLFGYLPRRAQEMVAEGLNVSLNEVYGVITFYNFFST	-0.342
HMSALTDQQQRVLELVASGLVYKEVAAALSISEPTVKYHMGNILTRLHVKNRAQAIAAARQQGLL	-0.26
HMEPQLVKSFDVQTELTYDQFLSKYPESHTLGRLLVQPEPIPFEPYKNIPGITPEKLLALHAKHLEAR	-0.169
HMTAFEPYLVKVMASVLNIRKGPGTSYAITGQIKDKGTYTIVAESGSWGKLKSGAGWISLSYTSKAGKA	-0.591
HMPMTRILFLPDDRTILQFDSAEPAEDLVSAVNAGRWLPPEPYRSGFGLGLPENRLRASRQGALVVVMLS	-1.19
HMSPLQLGNYNTLRITRFTDHGAYLDGGDVGEILMPKTYVLPEMKPGDEVRVFVYLDQEERLVGTTET	-1.44
HMLKFGLSQRELQILALLPTDEPLSILAKSLFISESTLKTHLTHIYRKLGVKNRLQAINVARKAGLLK	-0.502
HMTSVQDLLRNGDRVGYQNGSTVKYWLEEMGFHKKDLLGYVTVEEYAEALQRGSGNGGVSAIVD	-1.7
HMFTDEELEHIRSALIQAGIRLSKELGLQKMSVEKLTAAVGIAKGSFYMFFGSKEDFILEVAEYTGAQ	-0.679
HMTGVPYLVRVKITDLHIRSGPGTNYASKGFIAPGAYTIVEESTGQGAALWGKLKSGKGWIALGYTEK	0.0451
HMIDYIKYTVDGKTYELINNWDGTWSRELEAPLVAGRYDLLLEISQNGLVTYIDSSDPRYEFYLDVI	-2.3
HMQYFDIETEIQKFIKSENNLSDFDKETLQSFLYQLSKGSPEENTAKKVVDILNKFLPLTTAIINMIKALT	-0.381

Sequence	soluble fraction (log2)
HMELSSRQAMIVDIVRKYEPITSEQIADKLNLTRSALRPDLAVLTMIGILEARPRVGYFFTGK	-0.269
HMSEHKFIVPEEFNLKRLDQTVAAQFEKISRTKISKIIKSSLLKVNDKVVTDQSIKIKQDDVITFTEIKDQ	0.237
HMGLIAPMPGQIRSVAVSVGDVVKKGQTLLTMEAMKMEIRIQALKDGRVTALHAAQGQTVEGEQILIEVE	-0.652
HMLGERIKQIRKQKKMTQTDVATGIITKSMLSMIENGKATPSLPALQAIARRLQVTVEELML	0.0227
HMQDPTAVISRVLEERKHQPGALLPILHGIQDALGYVPREAVAQIAQALNLSRAEIHGVVSFYHHFR	-0.311
HMNSFGWESFVGEKGVTDTDLRPSGWIVIKDKRLFALTEGTFIEKGVSVEILSVEGNRIVVREIS	-0.711
HMREITVEELYELEGIRIVGTIPGISAWVAESGRQMVFLVGQKVKGHDLLEVGESRVVLRKGDSVVNVLL	-1.21
HMVRTIKILGIKHNINLYYKNVKVPTMNVKNQTLEIILPNKYKKFQEEQILKVLTQKLYDKIAETEIEKIK	≥ 0.43
HMTLGQHIQALRKEAGYSQEALGEALGVTRQSISKWESDQAIPEVDKLVTLSRLFQVPVGVLLQVEQP	-0.166
HMELSTQERIQILLEILNQREIISFSQTLRKKEGKKGVVVTFLASLELAKDGYVTLVQNKSDQIYLRSN	-0.428
HMKQTFGAMLAALRKEKGMTQLELAEQMGVTDKAVSKWERDLSFPDVTSLPRLAEILEVSVDELMQ	-0.724
HMSYTYPVARLNHIKGKWYVLVSVPAHLRHLFPNQRDLRRSTGTDDESLAKRKQHALAQEIYDLFD	0.00145
HMETVRHFRLDWSQAADRLDKVLASLMNDVSRARIQEWIRLGAVSVNGEILTDVRAKVAGGDAIDVTPQTA	-0.0931
HMSHGFFELKTTQKEALIKLLDSHPNFTHTKTEADLTTAFLKLPMDAEQFNKLLFTNGIVLSHLVKRK	-0.276
HMNQSAVMAERMKQTKNRILQTAKEIFLEQGYKRTTIRQIVERSGITSGSIYNIFSSKEEIFSALVDDL	-1.77
HMHPEQTLEKIVDISAELFAKKGYEQTSIQDILDATGLSKGGLYHHFKSKEEILEAVMQKRVQY	-0.647
HMELADLPSAQIREILAYVYRAPLEKRRDPSIHWLLIAAHKLTLPLLDRLDPADARALGERYGADYP	-0.644
HMEEDPVIAAQRFLNIFRQLHIFTAAKRKEFDELLLKQPASVKGMFASLPGGSVLQEYVNNLEQNAG	-0.0952
HMDLTSDANLKEAKDQILNLLNDGKRHHVTEINKILLPPVQVQEALRFLIHEETVRVDASFLF	-0.083
